From paper PMC10690619 (Frontiers in Microbiology, 2023)

Columns and labels:
[1] = target: T1, cDPGS (Mf-cDPGS), cyclic 2,3-diphosphoglycerate synthetase (Methanothermus fervidus, UniProt O93732); experiment: HPLC-MS detection of product; type: biochemical; settings: 50 mM ATP, 250 mM 2,3-DPG, 50 mM MgCl2, 300 mM KCl, 25 mM Tris-HCl pH 8.0, 65 C, 60 min
T1 construct: gene cpgS; full length, 460 residues, N-terminal His6 tag (pLATE51, E. coli BL21(DE3), codon-optimised gene), homodimer ~100 kDa; apo structure solved from selenomethionine protein

[2] = target: the molecule itself; experiment: SEC; calibrated Superdex 200 HiLoad 16/60, 20 mM Tris-HCl pH 7.5, 300 mM KCl, 1.0 mL/min, after Ni2+ affinity
[3] = target: the molecule itself; experiment: crystal structure; ligand-free (apo) selenomethionine protein, space group I222, one protomer in the asymmetric unit, 1.7 Å, SAD; oligomeric state analysed with PISA

## O=C(O)[C@H]1COP(=O)(O)OP(=O)(O)O1 [cDPG]
[1]
  HPLC-MS detection of product: The direct production of cDPG was monitored by HPLC–MS

B1: cyclic 2,3-diphosphoglycerate synthetase from Methanothermus fervidus, N-terminally His-tagged (enzyme, UniProt O93732 1-460, looked up)
chain: MGETKKMICLVDGEHYFPVVKDSIEILDDLEHIDVVAVVFIGGTEKLQIEDPKEYSEKLGKPVFFGPDPKKIPYDVIKKCVKKYNADIVMDLSDEPVVDYTKRFRIASIVLKEGAVYQGADFKFEPLTEYDVLEKPSIKIIGTGKRIGKTAVSAYAARVIHKHKYNPCVVAMGRGGPREPEIVEGNKIEITAEYLLEQADKGVHAASDHWEDALMSRILTVGCRRCGGGMLGDTFITNVKRGAEIANKLDSDFVIMEGSGAAIPPVKTNRQIVTVGANQPMININNFFGPFRIGLADLVIITMCEEPMATTEKIKKVEKFIKEINPSANVIPTVFRPKPVGNVEGKKVLFATTAPKVVVGKLVNYLESKYGCDVVGVTPHLSNRPLLRRDLKKYINKADLMLTELKAAAVDVATRVAIEAGLDVVYCDNIPVVIDESYGNIDDAIIEVVEMAIDDFKNNR
notes: cyclic 2,3-diphosphoglycerate synthetase (cDPGS), Methanothermus fervidus; E. coli codon-optimised gene in pLATE51; 460 protein residues in the structures, which hold the entire polypeptide chain (N-terminal domain of 127 amino acids, C-terminal domain residues 136-460); No removal of the His tag is told; also called cDPGS; Mf-cDPGS
[2]
  stoichiometry N: 2

B2: selenomethionine derivative of cyclic 2,3-diphosphoglycerate synthetase from Methanothermus fervidus (enzyme, UniProt O93732 1-460, looked up)
chain: B1 chain
modifications: selenomethionine in place of methionine
notes: cyclic 2,3-diphosphoglycerate synthetase (cDPGS), Methanothermus fervidus; same construct as m1, made with selenomethionine; 460 protein residues, the entire polypeptide chain seen in the structure; Used for the ligand-free structure (SAD phasing); One protomer in the asymmetric unit; the dimer lies on a crystallographic dyad; also called SeMet cDPGS; apo-cDPGS; source: E. coli, PASM-5052 auto …
[3]
  binding result: binds
